For orientation: EC50 means the concentration at which the effect is half-maximal.

Substitutions are numbered along the chain they refer to. Where “and” joins values, the source holds several entries; their conditions need not be identical. Equal values may be shown once.

Experiment [1] deals with T1, cynomolgus monkey LIV-1 (cynomolgus monkey, UniProt Q5R9M9 28-743 (Pongo abelii entry)).
T1 construct: Recombinant on transfected CHO cells; also called cyno LIV-1; cyLIV-1
T1 chain: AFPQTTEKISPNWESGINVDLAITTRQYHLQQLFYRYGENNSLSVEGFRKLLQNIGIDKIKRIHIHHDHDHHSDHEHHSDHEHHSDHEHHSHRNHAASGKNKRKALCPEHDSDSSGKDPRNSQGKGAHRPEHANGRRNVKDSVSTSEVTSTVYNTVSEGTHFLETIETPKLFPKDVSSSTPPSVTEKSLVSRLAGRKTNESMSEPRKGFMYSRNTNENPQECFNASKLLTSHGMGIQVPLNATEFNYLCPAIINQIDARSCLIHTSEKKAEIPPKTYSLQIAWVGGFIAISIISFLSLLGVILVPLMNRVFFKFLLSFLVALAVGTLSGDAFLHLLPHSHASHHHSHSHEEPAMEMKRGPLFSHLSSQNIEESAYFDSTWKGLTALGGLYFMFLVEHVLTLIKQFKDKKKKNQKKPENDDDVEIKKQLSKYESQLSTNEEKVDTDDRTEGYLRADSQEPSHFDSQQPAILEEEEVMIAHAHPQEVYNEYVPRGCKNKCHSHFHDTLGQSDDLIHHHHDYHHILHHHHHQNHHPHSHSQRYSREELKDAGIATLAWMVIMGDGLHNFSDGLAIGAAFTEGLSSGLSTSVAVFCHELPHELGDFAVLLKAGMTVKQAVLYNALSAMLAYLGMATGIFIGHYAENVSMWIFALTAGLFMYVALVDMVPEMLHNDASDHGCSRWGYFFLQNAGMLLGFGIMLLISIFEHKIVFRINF
In words: EC50 determination, CHO cells expressing recombinant cyno LIV-1. The method, then: 1×10⁵ CHO cells expressing recombinant cyno LIV-1 in PBS were aliquoted in each well of a 96-well v-bottom plates on ice. […] Cells were pelleted and washed 3 times with PBS. The cells were pelleted and resuspended in 125 μL of PBS/BSA. Fluorescence was analyzed by flow cytometry, using percent of saturated fluorescent signal to determine percent labeled murine LIV-1 mAb bound and to subsequently extrapolate the EC50 by fitting the data to a sigmoidal dose-response curve with variable slope.

The target of experiment [2] is T2, human LIV-1 (UniProt Q13433 29-755).
T2 chain: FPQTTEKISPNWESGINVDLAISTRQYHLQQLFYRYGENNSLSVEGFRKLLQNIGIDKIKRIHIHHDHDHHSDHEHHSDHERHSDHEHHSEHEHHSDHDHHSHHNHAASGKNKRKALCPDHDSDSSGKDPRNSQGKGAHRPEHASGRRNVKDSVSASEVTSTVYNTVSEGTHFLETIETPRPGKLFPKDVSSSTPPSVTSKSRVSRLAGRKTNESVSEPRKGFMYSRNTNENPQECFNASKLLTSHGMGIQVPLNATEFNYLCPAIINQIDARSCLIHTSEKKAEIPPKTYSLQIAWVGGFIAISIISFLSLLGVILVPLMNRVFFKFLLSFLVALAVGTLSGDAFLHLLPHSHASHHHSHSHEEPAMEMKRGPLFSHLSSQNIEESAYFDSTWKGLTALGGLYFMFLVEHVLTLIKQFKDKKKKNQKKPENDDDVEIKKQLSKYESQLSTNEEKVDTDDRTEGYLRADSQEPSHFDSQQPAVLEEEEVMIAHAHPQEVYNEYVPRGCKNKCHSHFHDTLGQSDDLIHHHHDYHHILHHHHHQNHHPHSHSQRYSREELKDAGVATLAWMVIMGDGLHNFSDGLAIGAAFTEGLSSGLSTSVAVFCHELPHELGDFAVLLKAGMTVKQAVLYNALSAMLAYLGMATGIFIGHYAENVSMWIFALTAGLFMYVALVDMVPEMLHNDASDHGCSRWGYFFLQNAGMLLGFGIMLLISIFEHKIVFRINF
Description: saturation binding, flow cytometry on MCF7 cells; AF-labeled. (Flow cytometry measures light scatter and fluorescence of single cells or particles in a stream.)

In experiment [3] the target is T3, human LIV-1 (human, UniProt Q13433 29-755).
T3 construct: also called hLIV-1; Q13433
T3 sequence: T2 chain
In words: saturation binding, CHO cells expressing human or cyno LIV-1 (FIG. 22).

For experiment [4], the target named is T3, human LIV-1. In words: average of several saturation binding curves, flow cytometry, MCF7 cells.
In experiment [5] the target is T3, human LIV-1. Description: comparison of the EC50s of Table 3, CHO cells expressing human LIV-1. The method, then:
(§1) 1×10⁵ CHO cells expressing recombinant human LIV-1 in PBS/BSA were aliquoted into each well of a 96-well v-bottom plates on ice. […] Cells were pelleted and washed 3 times with PBS/BSA. The cells were pelleted and resuspended in 125 μL of PBS/BSA. Fluorescence was analyzed by flow cytometry, using percent of saturated fluorescent signal to determine percent labeled murine LIV-1 mAb bound and to subsequently extrapolate the EC50 by fitting the data to a sigmoidal dose-response curve with variable slope.

Experiment [6] deals with T2, human LIV-1. Description: saturation binding on CHO cells; apparent Kd.
Experiment [7] concerns the target T4, cynomolgus monkey LIV-1.
T4 chain: T1 chain
Description: saturation binding on CHO cells; apparent Kd.

For experiment [8], the target named is T2, human LIV-1. Description: competition binding on CHO hLIV1 cells.
Experiment [9] has as its target T3, human LIV-1. In words: competition flow cytometry, CHO cells expressing human LIV-1, vs 5 nM AF647-labelled BR2-14a. Here is the method:
as §1

Experiment [10] addresses T1, cynomolgus monkey LIV-1. Description: saturation binding, CHO cells expressing cyno LIV-1 (FIG. 22).
Experiment [11] concerns the target T3, human LIV-1. Description: saturation binding, CHO cells expressing human LIV-1 (FIG. 22).
Experiment [12] has as its target T3, human LIV-1. Description: competition flow cytometry, CHO cells expressing recombinant LIV-1, vs 5 nM AF647-labelled BR2-22a. Here is the method:
1×10⁵ CHO cells expressing recombinant LIV-1 in PBS were aliquoted into each well of a 96-well v-bottom plates on ice. […] Cells were pelleted and washed 3 times with PBS. The cells were then pelleted and resuspended in 125 μL of PBS/BSA. Fluorescence was analyzed by flow cytometery, using percent of saturated fluorescent signal to determine percent labeled humanized BR2-22a antibody bound and to subsequently extrapolate the EC50 by fitting the data to a sigmoidal dose-response curve with variable slope.
All permutations of these five heavy chains and six light chains were then tested in a competition assay compared with BR2-22a (see FIG. 17).

Experiment [13] concerns the target T2, human LIV-1. Description: competition binding.
Experiment [14] has as its target T3, human LIV-1. In words: saturation binding of AF647-labelled antibody, flow cytometry, 293F (hLIV-1) cells. The method, then: (§2) 1×10⁵ antigen expressing cells (either MCF7 cells expressing human LIV-1, 293F cells, a transfected CHO cell line expressing human LIV-1 or a transfected CHO cell line expressing cyno LIV-1) were aliquoted per well of a 96-well v-bottom plates. […] Cells were pelleted and washed 3× with PBS/BSA. The cells were then pelleted and resuspended in 125 μL of PBS/BSA. Fluorescence was analyzed by flow cytometery, using percent of saturated fluorescent signal to determine percent bound and to subsequently calculate apparent Kd.
(§3) The KD for the murine Liv1 of BR2-22a (Table 5) was determined for human LIV-1 expressed as an endogenous protein in a human breast cancer cell line, in 293F cells or as a recombinant protein in a CHO cell line. The KD for BR2-22a was also determined for cyno LIV-1 expressed as a recombinant protein in a CHO cell line.

For experiment [15], the target named is T3, human LIV-1. Description: saturation binding of AF647-labelled antibody, flow cytometry, CHO hLIV-1 cells. The method, then:
as §2, §3

The target in experiment [16] is T3, human LIV-1. Description: saturation binding of AF647-labelled antibody, flow cytometry, MCF7 (ATCC) cells, endogenous hLIV-1. Here is the method: as §2, §3
Experiment [17] has as its target T1, cynomolgus monkey LIV-1. In words: saturation binding of AF647-labelled antibody, flow cytometry, CHO cyLIV-1 cells. The method, then: as §2, §3

B1: humanized BR2-14a antibody HBLB (hLIV14) (antibody, human IgG1, V domains shown)
VH: QVQLVQSGAEVKKPGASVKVSCKASGYTIEDYYMHWVRQAPGQGLEWMGWIDPENGDTEYAPTFQGRVTMTRDTSINTAYMELSRLRSDDTAVYYCARHDAHYGTWFAYWGQGTLVTVSS
VL: DVVMTQSPLSLPVTLGQPASISCRSSQSIIRNDGNTYLEWYQQRPGQSPRRLIYRVSNRFSGVPDRFSGSGSGTDFTLKISRVEAEDVGVYYCFQGSHVPYTFGGGTKVEIKR
notes: also called hLIV-14 HBLB WT; LIV-1 mAb HBLB
In the case of B1, the binding result in experiment [1] was “binds”. Further, the Kd in [2] was 0.4 µg/mL and 2.9 nM; in [4], 1.5 nM; in experiment [6] it was 4.3 nM; in experiment [7], 2.1 nM. The “fold affinity for human LIV-1 relative to cynomolgus LIV-1” value in experiment [3] is 2 fold. The “fold better binding than the next humanized antibody HBLF” value in experiment [5] is not below 2 fold. In addition, the EC50 in experiment [8] stood at 0.642 µg/mL; in [9], 0.3 µg/mL.

B2: humanized BR2-22a antibody HGLG (hLIV22) (antibody, V domains shown)
VH: B1 VH with Y27L, A61G, T63K, R98V, D100N
VL: B1 VL with I29L, I30L, R31H, N32S, D33S, R51P, R55K, V56I, N58T
notes: Only variable regions tied to the tested antibody; also called humanized LIV22 antibody; hLIV-22 HG + hLIV-22 LG
As for B2, in experiment [10], the binding result is on record as “binds”. For the same molecule, the figures for the Kd in experiment [6] and in [7] were 1.2 nM and 1.3 nM, respectively. Further, the “fold higher affinity (inverse of dissociation constant) than hLIV14” value in experiment [11] is approximately 4 fold. In addition, the EC50 in experiment [12] was 0.5 µg/mL.

B3: mouse monoclonal antibody BR2-22a (antibody, mouse IgG1, V domains shown)
VH: EVQLQQSGAELVRSGASVKLSCTASGLNIEDYYMHWVKQRPEQGLEWIGWIDPENGDTEYGPKFQGKATMTADTSSNTAYLQLSSLTSGDTAVYYCTVHNAHYGTWFAYWGQGTLVTVSA
VL: DVLMTQTPLSLPVSLGDQASISCRSSQSLLHSSGNTYLEWYLQRPGQSPKPLIYKISTRFSGVPDRFSGSGSGTDFTLKISRVEAEDLGLYYCFQGSHVPYTFGGGTKLEIKR
notes: also called mAb2; parental BR2-22a
As to B3, the EC50 in [13] turned out to be 0.3 µg/mL. In addition, the Kd came to 1.2 nM in [6]; 0.5 nM in [14]; 1.5 nM in experiment [15]; 1.1 nM in experiment [16]; 4.2 nM in experiment [17].

The values are drawn from patent US20200165335A1 (Seagen, published 2020).
